Results taken from patent US20260275312, “CRISPR NUCLEASE POLYPEPTIDES AND GENE EDITING SYSTEMS COMPRISING SUCH” (ARBOR BIOTECHNOLOGIES, INC., published 2026).

Key:
[1] = biological target: T1, Nuclease S W509R/T72R/I845R (synthetic construct, W509R,T72R,I845R); assay: cell_activity; HEK293T; PAM AACC; conditions: tags: N-term SV40 NLS, XTEN linker + C-term nucleoplasmin NLS
T1 chain: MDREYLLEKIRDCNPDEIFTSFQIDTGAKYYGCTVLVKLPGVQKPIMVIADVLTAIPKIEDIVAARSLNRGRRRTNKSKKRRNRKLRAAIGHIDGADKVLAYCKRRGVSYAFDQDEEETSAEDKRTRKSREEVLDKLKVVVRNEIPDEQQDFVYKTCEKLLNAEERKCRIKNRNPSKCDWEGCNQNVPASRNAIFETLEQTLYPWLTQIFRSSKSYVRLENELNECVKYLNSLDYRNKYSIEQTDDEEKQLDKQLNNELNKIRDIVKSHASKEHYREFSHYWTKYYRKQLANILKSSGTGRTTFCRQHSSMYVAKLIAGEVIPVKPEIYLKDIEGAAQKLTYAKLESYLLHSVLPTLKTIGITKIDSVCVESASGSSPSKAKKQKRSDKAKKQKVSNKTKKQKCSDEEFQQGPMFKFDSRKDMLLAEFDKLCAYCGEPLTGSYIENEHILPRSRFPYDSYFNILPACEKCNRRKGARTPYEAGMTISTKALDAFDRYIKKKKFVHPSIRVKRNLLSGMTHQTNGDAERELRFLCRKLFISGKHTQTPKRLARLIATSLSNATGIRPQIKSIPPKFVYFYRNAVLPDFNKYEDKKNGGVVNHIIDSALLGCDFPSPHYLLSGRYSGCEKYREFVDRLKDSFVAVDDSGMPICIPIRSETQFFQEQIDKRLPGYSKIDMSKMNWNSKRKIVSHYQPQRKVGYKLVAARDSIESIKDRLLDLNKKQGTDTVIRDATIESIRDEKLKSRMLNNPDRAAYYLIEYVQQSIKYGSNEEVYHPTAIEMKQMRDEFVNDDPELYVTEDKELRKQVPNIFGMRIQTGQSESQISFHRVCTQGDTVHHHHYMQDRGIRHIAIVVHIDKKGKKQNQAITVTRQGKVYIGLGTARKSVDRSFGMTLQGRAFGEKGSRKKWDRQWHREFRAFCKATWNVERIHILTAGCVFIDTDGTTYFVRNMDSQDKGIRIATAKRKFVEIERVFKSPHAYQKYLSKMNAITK
Protocol: HEK293T cells were transfected with plasmids expressing the Nuclease S polypeptides and the gRNAs provided herein following the methods provided in Example 1 above. Gene editing efficiencies were determined by NGS following the methods also provided in Example 1. The NGS results were analyzed also following the methods provided in Example 1 above.
Each Nuclease S variant was cloned as described in Example 6. HEK293T cells were further transfected with a plasmid encoding a Nuclease S variant and a plasmid encoding an RNA guide of Table 11, followed by NGS analysis, as described in Example 5. For each target, indel ratios, referring to the percentage of NGS reads comprising indels, were calculated for the reference Nuclease S (SEQ ID NO: 49) and for each Nuclease S variant. The indel ratios shown in Table 13 were calculated as the average of two bioreplicates, each of which contained two technical replicates.

Nuclease S = biological target: T2, Nuclease S (synthetic construct); assay: cell_activity; HEK293T; PAM AACC 3'; very low; conditions: tags: N-term SV40 NLS, XTEN linker + C-term nucleoplasmin NLS
T2 chain: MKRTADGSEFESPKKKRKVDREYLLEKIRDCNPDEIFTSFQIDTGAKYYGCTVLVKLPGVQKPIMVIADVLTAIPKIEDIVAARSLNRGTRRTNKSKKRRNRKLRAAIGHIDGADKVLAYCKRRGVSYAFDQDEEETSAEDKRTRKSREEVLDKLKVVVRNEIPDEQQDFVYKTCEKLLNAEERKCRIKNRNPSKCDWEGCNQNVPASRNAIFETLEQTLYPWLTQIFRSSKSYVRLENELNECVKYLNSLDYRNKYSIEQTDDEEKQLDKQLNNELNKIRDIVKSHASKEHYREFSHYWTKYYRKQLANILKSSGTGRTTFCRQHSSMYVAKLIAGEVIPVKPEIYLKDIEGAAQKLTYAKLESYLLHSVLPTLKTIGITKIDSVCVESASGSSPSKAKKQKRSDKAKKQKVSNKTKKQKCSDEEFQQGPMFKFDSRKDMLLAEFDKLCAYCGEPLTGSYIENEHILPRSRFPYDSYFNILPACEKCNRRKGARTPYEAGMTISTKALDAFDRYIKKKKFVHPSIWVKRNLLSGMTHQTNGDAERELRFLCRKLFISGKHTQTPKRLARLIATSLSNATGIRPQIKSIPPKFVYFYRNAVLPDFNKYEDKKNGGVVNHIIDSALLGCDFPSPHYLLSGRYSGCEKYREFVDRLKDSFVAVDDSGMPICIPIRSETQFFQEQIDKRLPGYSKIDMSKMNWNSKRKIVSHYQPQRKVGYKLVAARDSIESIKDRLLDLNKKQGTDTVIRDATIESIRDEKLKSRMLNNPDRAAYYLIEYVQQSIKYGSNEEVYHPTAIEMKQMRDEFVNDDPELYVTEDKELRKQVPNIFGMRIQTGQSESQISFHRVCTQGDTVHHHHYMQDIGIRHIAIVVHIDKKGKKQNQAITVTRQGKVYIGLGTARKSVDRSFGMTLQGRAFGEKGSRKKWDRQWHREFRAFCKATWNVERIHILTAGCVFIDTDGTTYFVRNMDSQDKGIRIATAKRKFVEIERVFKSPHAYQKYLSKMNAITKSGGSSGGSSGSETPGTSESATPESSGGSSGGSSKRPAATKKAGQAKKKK

B1: S AAVS1-T7 RNA guide ; AAVS1-T7 target (S) (ssRNA ; dsDNA)
RNA: GGCUAUAAUCCAUGCUGACCGUUGUAUUCGGAUGGGAGUAAAAGGUUGAGUACACCUGGAAACAAAACGACAUAAAGGUGUUCUCCCAUCUGUGUACAAAGAGCAGAUAUAUGAGUUGAUAAGUAAUAUGUUGCACGUAUGGACUUUGACAGUCUGUACCUCUGCGUGAAAGACAUAUUGCGUUAUUCAUAUAUCUGUGAGUCUGUUCUAAAUUUAAAGGUUUAGGGAA
DNA 1: GGCTATAATCCATGCTGACC
DNA 2: GGTCAGCATGGATTATAGCC
Work on B1 yielded an activity [1] of 0.305 indel ratio and an activity (Nuclease S) of 0.0048 indel ratio.
